# Measured values taken from publication doi:10.1101/2024.11.22.622898.
# Molecular target: Retromer (recombinant trimer) (human) (UniProt Q96QK1)
# Test: ITC
row,Substance,Kd
1,DENND4C peptide 1189-1206,15.4 µM
2,recombinant full-length human TBC1D13 (from UniProt Q9NVG8 1-400) (natural protein),6.3 µM
